PMC4624489

Tests used:
Hfq:E18A-S38W = Hfq:E18A-S38W (Escherichia coli, UniProt P0A6X3 1-102, E18A;S38W); assay: tryptophan fluorescence quenching
Hfq:D9A-S38W = Hfq:D9A-S38W (Escherichia coli, UniProt P0A6X3 1-102, D9A;S38W); assay: tryptophan fluorescence quenching

GUGGUCAGUCGAGUGG (ssRNA) [oligo C]: binds (Hfq:E18A-S38W); binds (Hfq:D9A-S38W).
